Data taken from publication PMC11389873 (Free radical biology & medicine, 2022).

Legend:
[1] = biological target: Purified recombinant human apo-IDO1 (His6-IDO1), Alexafluor 647-labelled (human, UniProt P14902 1-403, Alexafluor 647 on Cys groups); assay: fluorescence polarisation
[2] = biological target: Purified recombinant human apo-TDO (GST-TDO), Alexafluor 647-labelled (human, UniProt P48775 1-406, Alexafluor 647 on Cys groups); assay: fluorescence polarisation
Purified recombinant human apo-TDO (GST-TDO), Alexafluor 647-labelled, sequence (P48775 whole entry): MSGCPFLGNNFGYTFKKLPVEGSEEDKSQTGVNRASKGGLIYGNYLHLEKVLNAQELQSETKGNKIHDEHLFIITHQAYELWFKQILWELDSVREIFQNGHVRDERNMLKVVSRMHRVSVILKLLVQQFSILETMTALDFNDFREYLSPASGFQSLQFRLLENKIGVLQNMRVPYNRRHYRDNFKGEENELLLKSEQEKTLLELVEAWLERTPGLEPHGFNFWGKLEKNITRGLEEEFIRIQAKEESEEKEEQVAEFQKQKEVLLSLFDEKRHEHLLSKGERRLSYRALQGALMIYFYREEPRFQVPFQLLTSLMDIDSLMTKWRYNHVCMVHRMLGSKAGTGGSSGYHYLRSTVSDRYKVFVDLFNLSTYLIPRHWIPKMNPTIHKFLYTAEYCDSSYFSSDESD

Purified recombinant human apo-IDO1 (His6-IDO1), Alexafluor 647-labelled, sequence (P14902 whole entry): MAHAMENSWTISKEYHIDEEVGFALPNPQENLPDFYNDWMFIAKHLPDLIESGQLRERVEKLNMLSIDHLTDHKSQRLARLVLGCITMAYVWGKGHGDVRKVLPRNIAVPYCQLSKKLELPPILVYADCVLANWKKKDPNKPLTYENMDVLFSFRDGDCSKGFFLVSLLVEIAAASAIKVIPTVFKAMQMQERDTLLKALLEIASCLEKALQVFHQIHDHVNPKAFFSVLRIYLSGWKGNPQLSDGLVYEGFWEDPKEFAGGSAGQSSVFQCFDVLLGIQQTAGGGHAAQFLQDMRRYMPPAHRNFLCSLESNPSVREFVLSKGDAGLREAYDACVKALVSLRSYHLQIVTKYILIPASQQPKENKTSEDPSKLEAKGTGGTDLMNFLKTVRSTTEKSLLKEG

Kd [1]: 1500 ± 1300 nM | Kd [2]: 1200 ± 400 nM
B1: Purified GST-tagged human GAPDH (natural protein)
chain: not shown
